This test addresses CXCR3 from Mus musculus (NCBI accession no. NP_034040) (Mus musculus) (UniProt O88410). The test can be described thus: cell-based or functional assay.
Chain of UniProt O88410 (O88410 whole entry): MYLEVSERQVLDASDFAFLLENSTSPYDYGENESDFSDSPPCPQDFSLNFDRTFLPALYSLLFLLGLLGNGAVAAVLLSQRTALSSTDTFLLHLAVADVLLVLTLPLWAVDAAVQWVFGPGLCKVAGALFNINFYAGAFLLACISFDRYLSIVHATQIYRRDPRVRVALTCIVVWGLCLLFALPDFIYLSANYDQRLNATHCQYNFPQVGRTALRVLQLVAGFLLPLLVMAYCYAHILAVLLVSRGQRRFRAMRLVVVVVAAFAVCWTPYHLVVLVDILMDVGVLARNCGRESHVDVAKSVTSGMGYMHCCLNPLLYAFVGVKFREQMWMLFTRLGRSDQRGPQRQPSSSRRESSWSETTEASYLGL

“PT-gliadin (gliadin digested with pepsin and trypsin) (peptide)” registered a TEER, WT mouse intestinal segments (n=10), baseline of 24.1; a TEER, WT mouse intestinal segments (n=10), post-gliadin exposure of 14.7; a zonulin release, WT mouse intestinal segments (n=10), baseline (ng/mg protein) of 0.33; a zonulin release, WT mouse intestinal segments (n=10), post-gliadin exposure (ng/mg protein) of 0.61.

The values are drawn from patent US20070048801A1.
